Assay results from US20180155451A1 (published 2018).

T1: FcγRIIb (human, UniProt P31994 43-217)
T1 construct: extracellular domain; also called 2b; FcgRIIb
T1 sequence (looked up): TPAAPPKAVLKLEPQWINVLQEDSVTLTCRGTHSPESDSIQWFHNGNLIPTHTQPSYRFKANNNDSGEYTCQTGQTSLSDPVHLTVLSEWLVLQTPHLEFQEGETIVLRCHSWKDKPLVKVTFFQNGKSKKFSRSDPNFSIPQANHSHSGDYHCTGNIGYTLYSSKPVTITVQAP

B1: GpH7-A5/GpH7-B3 variant H268_15Y/GpL16-k0 (antibody, human IgG1, kappa)
heavy 1: not shown
heavy 2: not shown
light: DIVMTQSPLSLPVTPGEPASISCQASESLVHSNRNTYLHWYLQKPGQSPQLLIYKVSNRFSGVPDRFSGSGSGTDFTLKISRVEAEDVGVYYCSQNTHVPPTFGQGTKVEIERTVAAPSVFIFPPSDEQLKSGTASVVCLLNNFYPREAKVQWKVDNALQSGNSQESVTEQDSKDSTYSLSSTLTLSKADYEKHKVYACEVTHQGLSSPVTKSFNRGEC
notes: also called He Ab H268_15Y
B2: GpH7-A5/GpH7-B3 variant I332_02A/GpL16-k0 (antibody, human IgG1, kappa)
heavy 1: not shown
heavy 2: not shown
light: DIVMTQSPLSLPVTPGEPASISCQASESLVHSNRNTYLHWYLQKPGQSPQLLIYKVSNRFSGVPDRFSGSGSGTDFTLKISRVEAEDVGVYYCSQNTHVPPTFGQGTKVEIERTVAAPSVFIFPPSDEQLKSGTASVVCLLNNFYPREAKVQWKVDNALQSGNSQESVTEQDSKDSTYSLSSTLTLSKADYEKHKVYACEVTHQGLSSPVTKSFNRGEC
notes: also called He Ab I332_02A
B3: GpH7-A5/GpH7-B3 variant L234_10E/GpL16-k0 (antibody, human IgG1, kappa)
heavy 1: not shown
heavy 2: not shown
light: DIVMTQSPLSLPVTPGEPASISCQASESLVHSNRNTYLHWYLQKPGQSPQLLIYKVSNRFSGVPDRFSGSGSGTDFTLKISRVEAEDVGVYYCSQNTHVPPTFGQGTKVEIERTVAAPSVFIFPPSDEQLKSGTASVVCLLNNFYPREAKVQWKVDNALQSGNSQESVTEQDSKDSTYSLSSTLTLSKADYEKHKVYACEVTHQGLSSPVTKSFNRGEC
notes: also called He Ab L234_10E
B4: GpH7-A5/GpH7-B3 variant K326_20W/GpL16-k0 (antibody, human IgG1, kappa)
heavy 1: not shown
heavy 2: not shown
light: DIVMTQSPLSLPVTPGEPASISCQASESLVHSNRNTYLHWYLQKPGQSPQLLIYKVSNRFSGVPDRFSGSGSGTDFTLKISRVEAEDVGVYYCSQNTHVPPTFGQGTKVEIERTVAAPSVFIFPPSDEQLKSGTASVVCLLNNFYPREAKVQWKVDNALQSGNSQESVTEQDSKDSTYSLSSTLTLSKADYEKHKVYACEVTHQGLSSPVTKSFNRGEC
notes: also called He Ab K326_20W
B5: GpH7-A5/GpH7-B3 variant K326_08L/GpL16-k0 (antibody, human IgG1, kappa)
heavy 1: not shown
heavy 2: not shown
light: DIVMTQSPLSLPVTPGEPASISCQASESLVHSNRNTYLHWYLQKPGQSPQLLIYKVSNRFSGVPDRFSGSGSGTDFTLKISRVEAEDVGVYYCSQNTHVPPTFGQGTKVEIERTVAAPSVFIFPPSDEQLKSGTASVVCLLNNFYPREAKVQWKVDNALQSGNSQESVTEQDSKDSTYSLSSTLTLSKADYEKHKVYACEVTHQGLSSPVTKSFNRGEC
notes: also called He Ab K326_08L
B6: GpH7-A5/GpH7-B3 variant I336_06M/GpL16-k0 (antibody, human IgG1, kappa)
heavy 1: not shown
heavy 2: not shown
light: DIVMTQSPLSLPVTPGEPASISCQASESLVHSNRNTYLHWYLQKPGQSPQLLIYKVSNRFSGVPDRFSGSGSGTDFTLKISRVEAEDVGVYYCSQNTHVPPTFGQGTKVEIERTVAAPSVFIFPPSDEQLKSGTASVVCLLNNFYPREAKVQWKVDNALQSGNSQESVTEQDSKDSTYSLSSTLTLSKADYEKHKVYACEVTHQGLSSPVTKSFNRGEC
notes: also called He Ab I336_06M
B7: GpH7-A5/GpH7-B3 variant L234_09D/GpL16-k0 (antibody, human IgG1, kappa)
heavy 1: not shown
heavy 2: not shown
light: DIVMTQSPLSLPVTPGEPASISCQASESLVHSNRNTYLHWYLQKPGQSPQLLIYKVSNRFSGVPDRFSGSGSGTDFTLKISRVEAEDVGVYYCSQNTHVPPTFGQGTKVEIERTVAAPSVFIFPPSDEQLKSGTASVVCLLNNFYPREAKVQWKVDNALQSGNSQESVTEQDSKDSTYSLSSTLTLSKADYEKHKVYACEVTHQGLSSPVTKSFNRGEC
notes: also called He Ab L234_09D
B8: GpH7-A5/GpH7-B3 variant L235_20W/GpL16-k0 (antibody, human IgG1, kappa)
heavy 1: not shown
heavy 2: not shown
light: DIVMTQSPLSLPVTPGEPASISCQASESLVHSNRNTYLHWYLQKPGQSPQLLIYKVSNRFSGVPDRFSGSGSGTDFTLKISRVEAEDVGVYYCSQNTHVPPTFGQGTKVEIERTVAAPSVFIFPPSDEQLKSGTASVVCLLNNFYPREAKVQWKVDNALQSGNSQESVTEQDSKDSTYSLSSTLTLSKADYEKHKVYACEVTHQGLSSPVTKSFNRGEC
notes: also called He Ab L235_20W
B9: GpH7-A5/GpH7-B3 variant L235_15Y/GpL16-k0 (antibody, human IgG1, kappa)
heavy 1: not shown
heavy 2: not shown
light: DIVMTQSPLSLPVTPGEPASISCQASESLVHSNRNTYLHWYLQKPGQSPQLLIYKVSNRFSGVPDRFSGSGSGTDFTLKISRVEAEDVGVYYCSQNTHVPPTFGQGTKVEIERTVAAPSVFIFPPSDEQLKSGTASVVCLLNNFYPREAKVQWKVDNALQSGNSQESVTEQDSKDSTYSLSSTLTLSKADYEKHKVYACEVTHQGLSSPVTKSFNRGEC
notes: also called He Ab L235_15Y
B10: GpH7-A5/GpH7-B3 variant I332_14T/GpL16-k0 (antibody, human IgG1, kappa)
heavy 1: not shown
heavy 2: not shown
light: DIVMTQSPLSLPVTPGEPASISCQASESLVHSNRNTYLHWYLQKPGQSPQLLIYKVSNRFSGVPDRFSGSGSGTDFTLKISRVEAEDVGVYYCSQNTHVPPTFGQGTKVEIERTVAAPSVFIFPPSDEQLKSGTASVVCLLNNFYPREAKVQWKVDNALQSGNSQESVTEQDSKDSTYSLSSTLTLSKADYEKHKVYACEVTHQGLSSPVTKSFNRGEC
notes: also called He Ab I332_14T
B11: GpH7-A5/GpH7-B3 variant L328_02A/GpL16-k0 (antibody, human IgG1, kappa)
heavy 1: not shown
heavy 2: not shown
light: DIVMTQSPLSLPVTPGEPASISCQASESLVHSNRNTYLHWYLQKPGQSPQLLIYKVSNRFSGVPDRFSGSGSGTDFTLKISRVEAEDVGVYYCSQNTHVPPTFGQGTKVEIERTVAAPSVFIFPPSDEQLKSGTASVVCLLNNFYPREAKVQWKVDNALQSGNSQESVTEQDSKDSTYSLSSTLTLSKADYEKHKVYACEVTHQGLSSPVTKSFNRGEC
notes: also called He Ab L328_02A
B12: GpH7-A5/GpH7-B3 variant I336_08L/GpL16-k0 (antibody, human IgG1, kappa)
heavy 1: not shown
heavy 2: not shown
light: DIVMTQSPLSLPVTPGEPASISCQASESLVHSNRNTYLHWYLQKPGQSPQLLIYKVSNRFSGVPDRFSGSGSGTDFTLKISRVEAEDVGVYYCSQNTHVPPTFGQGTKVEIERTVAAPSVFIFPPSDEQLKSGTASVVCLLNNFYPREAKVQWKVDNALQSGNSQESVTEQDSKDSTYSLSSTLTLSKADYEKHKVYACEVTHQGLSSPVTKSFNRGEC
notes: also called He Ab I336_08L
B13: GpH7-A5/GpH7-B3 variant L235_04F/GpL16-k0 (antibody, human IgG1, kappa)
heavy 1: not shown
heavy 2: not shown
light: DIVMTQSPLSLPVTPGEPASISCQASESLVHSNRNTYLHWYLQKPGQSPQLLIYKVSNRFSGVPDRFSGSGSGTDFTLKISRVEAEDVGVYYCSQNTHVPPTFGQGTKVEIERTVAAPSVFIFPPSDEQLKSGTASVVCLLNNFYPREAKVQWKVDNALQSGNSQESVTEQDSKDSTYSLSSTLTLSKADYEKHKVYACEVTHQGLSSPVTKSFNRGEC
notes: also called He Ab L235_04F
B14: GpH7-A5/GpH7-B3 variant K326_07I/GpL16-k0 (antibody, human IgG1, kappa)
heavy 1: not shown
heavy 2: not shown
light: DIVMTQSPLSLPVTPGEPASISCQASESLVHSNRNTYLHWYLQKPGQSPQLLIYKVSNRFSGVPDRFSGSGSGTDFTLKISRVEAEDVGVYYCSQNTHVPPTFGQGTKVEIERTVAAPSVFIFPPSDEQLKSGTASVVCLLNNFYPREAKVQWKVDNALQSGNSQESVTEQDSKDSTYSLSSTLTLSKADYEKHKVYACEVTHQGLSSPVTKSFNRGEC
notes: also called He Ab K326_07I
B15: GpH7-A5/GpH7-B3 variant L235_09D/GpL16-k0 (antibody, human IgG1, kappa)
heavy 1: not shown
heavy 2: not shown
light: DIVMTQSPLSLPVTPGEPASISCQASESLVHSNRNTYLHWYLQKPGQSPQLLIYKVSNRFSGVPDRFSGSGSGTDFTLKISRVEAEDVGVYYCSQNTHVPPTFGQGTKVEIERTVAAPSVFIFPPSDEQLKSGTASVVCLLNNFYPREAKVQWKVDNALQSGNSQESVTEQDSKDSTYSLSSTLTLSKADYEKHKVYACEVTHQGLSSPVTKSFNRGEC
notes: also called He Ab L235_09D
B16: GpH7-A5/GpH7-B3 variant L234_20W/GpL16-k0 (antibody, human IgG1, kappa)
heavy 1: not shown
heavy 2: not shown
light: DIVMTQSPLSLPVTPGEPASISCQASESLVHSNRNTYLHWYLQKPGQSPQLLIYKVSNRFSGVPDRFSGSGSGTDFTLKISRVEAEDVGVYYCSQNTHVPPTFGQGTKVEIERTVAAPSVFIFPPSDEQLKSGTASVVCLLNNFYPREAKVQWKVDNALQSGNSQESVTEQDSKDSTYSLSSTLTLSKADYEKHKVYACEVTHQGLSSPVTKSFNRGEC
notes: also called He Ab L234_20W

What follows are binders tested against T1, FcγRIIb (assay: SPR (Biacore), binding relative to GpH7-A5/GpH7-B3/GpL16-k0 = 100).
Method: Analysis of interaction between objective antibody and the FcγR was carried out using Biacore T100 (GE Healthcare). HBS-EP+ (GE Healthcare) was used as the running buffer, and the measurement temperature was set to 25° C. Chips produced by immobilizing the antigen peptide by the amine coupling method to a Series S Sencor Chip CM5 (GE Healthcare), or alternatively, chips produced by allowing preliminarily biotinylated antigen peptides to interact with and immobilize onto a Series S Sensor Chip SA (certified) (GE Healthcare) were used. Antibodies of interest were captured onto an antigen peptide-immobilized chip, and allowed to interact to each FcγR diluted with running buffer. To regenerate and repeatedly use the chip, the antibodies captured on the chip were washed off by reacting 10 mM glycine-HCl, pH 1.5.
The FcγR-binding activity of each antibody was assessed primarily using as an indicator the FcγR-binding activity and dissociation constant for FcγR.
B1 was tested, and the He/Con_2b was 106 % of control. In the case of B2, the He/Con_2b is reported as 103 % of control. In the case of B3, the He/Con_2b is reported as 118 % of control. In the case of B4, the He/Con_2b is reported as 148 % of control. With B5 the He/Con_2b was 177 % of control. B6 was tested, and the He/Con_2b was 101 % of control. With B7 the He/Con_2b was 150 % of control. For B8, the He/Con_2b was 147 % of control. With B9 the He/Con_2b was 149 % of control. In the case of B10, the He/Con_2b is reported as 106 % of control. In the case of B11, the He/Con_2b is reported as 144 % of control. For B12, the He/Con_2b was 107 % of control. For B13, the He/Con_2b was 118 % of control. With B14 the He/Con_2b was 199 % of control. In the case of B15, the He/Con_2b is reported as 106 % of control. For B16, the He/Con_2b was 114 % of control.
